These are literature values, as cited in PMC12152952.

The series has as its target EphA2 (ephrin type-A receptor 2) (UniProt P29317). As to conditions: 2'-fluoro on lowercase residues (all C and U; 2'-F pyrimidines), A and G are ribo.

Sequence of EphA2 (ephrin type-A receptor 2) (P29317 24-537): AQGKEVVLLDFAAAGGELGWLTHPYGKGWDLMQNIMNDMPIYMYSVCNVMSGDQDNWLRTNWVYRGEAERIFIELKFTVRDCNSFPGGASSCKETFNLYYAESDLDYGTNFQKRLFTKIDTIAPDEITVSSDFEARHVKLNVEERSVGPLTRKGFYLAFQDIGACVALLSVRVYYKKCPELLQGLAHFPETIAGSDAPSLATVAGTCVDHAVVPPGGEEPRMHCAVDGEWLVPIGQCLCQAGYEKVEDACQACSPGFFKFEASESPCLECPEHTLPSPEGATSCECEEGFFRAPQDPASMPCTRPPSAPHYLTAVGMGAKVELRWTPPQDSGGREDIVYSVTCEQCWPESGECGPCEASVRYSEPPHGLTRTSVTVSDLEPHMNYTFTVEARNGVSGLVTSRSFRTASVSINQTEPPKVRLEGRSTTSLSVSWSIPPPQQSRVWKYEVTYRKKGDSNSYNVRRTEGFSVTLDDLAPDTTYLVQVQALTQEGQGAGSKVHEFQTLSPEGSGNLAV

Take CCUGUUGUUCGACAGGAGGCUCACAACAGG [A40s]: the dissociation constant (Kd) was 0.76 nM.
